In patent US20250011363A1, “OPTIMIZED SHORTENED PEPTIDE THAT BINDS TO ACETYLCHOLINE RECEPTOR, AND USE THEREOF” (SKINMED CO., LTD., priority 2021, published 2025) one finds Binding affinity (RU) and Binding affinity data, which are given here for 71 molecules.

For test [1], the target named is acetylcholine receptor. The test is described as follows: SPR, peptide at 10 uM on immobilised AchR. On the technique in general: SPR reads the build-up and loss of mass on a sensor chip optically.
The target in test [2] is acetylcholine receptor. The test is described as follows: SPR, peptide at 10 uM, AchR immobilized.

As for RKGQCR [6mer-1-32], the Binding affinity (RU) with acetylcholine receptor [1] is 121 RU. The molecule KRQYCK [6mer-1-44] had a Binding affinity (RU) in the test with acetylcholine receptor [1] of 148 RU. On the same count and under the same terms, with KRWRLK [6mer-1-10] the figure was 139 RU; with RRWFTK [6mer-1-62], 133 RU; with RRSYTR [6mer-1-67], 135 RU. RKRLCK [6mer-1-22] yielded a Binding affinity (RU) with acetylcholine receptor [1] of 126 RU. KRSVSR [6mer-1-23] came in with a Binding affinity (RU) with acetylcholine receptor [1] of 153 RU. On the same count and under the same terms, as for KKRVLR [6mer-1-26], the figure is 123 RU; as for KRVQCR [6mer-1-17], 135 RU. KRQIQR [6mer-1-13] returned a Binding affinity (RU) with acetylcholine receptor [1] of 147 RU. Still for that read-out and setting: as for KKSRYK [6mer-1-20], the figure is 147 RU; as for KRQFTK [6mer-1-11], 139 RU. On the same count and under the same terms, as for KRSQYK [6mer-1-40], the figure is 121 RU; as for KRSFTK [6mer-1-27], 142 RU. In turn, KRQYSK [6mer-1-7] showed a Binding affinity (RU) in the test with acetylcholine receptor [1] of 126 RU. Same read-out and setting: with RKSVTR [6mer-1-58] the figure was 126 RU; with RRQQTK [6mer-1-38], 126 RU. Regarding KRDSPK [6mer-1-667], the Binding affinity in the test with acetylcholine receptor [2] is 32 RU.

The molecule KKWVSR [6mer-1-63] gave a Binding affinity (RU) with acetylcholine receptor [1] of 148 RU. Same read-out and setting: as for RRWVRR [6mer-1-48], the figure is 124 RU; as for RKSFYK [6mer-1-4], 139 RU.

For the molecule KRLYCR [6mer-1-31], in the test with acetylcholine receptor [1], the Binding affinity (RU) was found to be 121 RU. The same measure, in the same setting: as for KRLQCK [6mer-1-59], the figure is 145 RU; as for RKWLYK [6mer-1-34], 135 RU; as for KRVIQR [6mer-1-53], 123 RU. Still for that read-out and setting: as for RRWQTR [6mer-1-49], the figure is 149 RU. As to RKVIRK [6mer-1-24], the Binding affinity (RU) in the test with acetylcholine receptor [1] was 142 RU.

Turning to RKQILR [6mer-1-2], the Binding affinity (RU) with acetylcholine receptor [1] amounted to 142 RU. The same measure, in the same setting: with KKSRRR [6mer-1-65] the figure was 121 RU; with KKVISK [6mer-1-1], 122 RU. In the test with acetylcholine receptor [1], RRQVRR [6mer-1-30] came in with a Binding affinity (RU) of 154 RU. Still for that read-out and setting: with KRSYCK [6mer-1-61] the figure was 121 RU; with RKVYQK [6mer-1-39], 139 RU; with KRSFYR [6mer-1-19], 135 RU. The same measure, in the same setting: as for KKWVLR [6mer-1-37], the figure is 121 RU.

In the test with acetylcholine receptor [1], RKWYLK [6mer-1-21] displayed a Binding affinity (RU) of 137 RU. In turn, KKQFTR [6mer-1-18] displayed a Binding affinity (RU) with acetylcholine receptor [1] of 145 RU. Consider RRGRQR [6mer-1-35], for which the Binding affinity (RU) with acetylcholine receptor [1] worked out at 136 RU.

Molecule RKQYYK [6mer-1-57] came in with a Binding affinity (RU) in the test with acetylcholine receptor [1] of 139 RU. Regarding KKQYCR [6mer-1-16], the Binding affinity (RU) in the test with acetylcholine receptor [1] is 136 RU. Molecule RKSRCK [6mer-1-6] gave a Binding affinity (RU) in the test with acetylcholine receptor [1] of 153 RU. KRLYQR [6mer-1-46]: the Binding affinity (RU) with acetylcholine receptor [1] was found to be 142 RU. In turn, KKLIRR [6mer-1-25] displayed a Binding affinity (RU) in the test with acetylcholine receptor [1] of 135 RU.

As to KRNMAK [6mer-1-669], the Binding affinity with acetylcholine receptor [2] came out at 23 RU. The molecule KKRIQR [6mer-1-42] returned a Binding affinity (RU) in the test with acetylcholine receptor [1] of 139 RU.

In the test with acetylcholine receptor [1], KKSISR [6mer-1-66] returned a Binding affinity (RU) of 147 RU. Consider RRRVCK [6mer-1-54], for which, in the test with acetylcholine receptor [1], the Binding affinity (RU) was 144 RU. For KRQICK [6mer-1-15], in the test with acetylcholine receptor [1], the Binding affinity (RU) stood at 123 RU. On to RKGLTK [6mer-1-45], for which, in the test with acetylcholine receptor [1], the Binding affinity (RU) turned out to be 145 RU. With KKQICK [6mer-1-12], in the test with acetylcholine receptor [1], the Binding affinity (RU) worked out at 128 RU.

For the molecule RKATVK [6mer-1-668], in the test with acetylcholine receptor [2], the Binding affinity stood at 17 RU.

Consider RKGITK [6mer-1-41], for which the Binding affinity (RU) with acetylcholine receptor [1] worked out at 122 RU. The same measure, in the same setting: with KKVRTR [6mer-1-50] the figure was 139 RU; with RKQFTK [6mer-1-64], 154 RU; with RKRRSR [6mer-1-3], 154 RU. RRWISK [6mer-1-28]: in the test with acetylcholine receptor [1], the Binding affinity (RU) came to 125 RU. Same read-out and setting: with RKRFLK [6mer-1-14] the figure was 145 RU; with KRSIYR [6mer-1-55], 133 RU. Same read-out and setting: as for KRLISR [6mer-1-29], the figure is 124 RU. The same measure, in the same setting: with RRVLYK [6mer-1-51] the figure was 127 RU; with RKLQLK [6mer-1-68], 153 RU. In turn, KKSYCR [6mer-1-33] displayed a Binding affinity (RU) in the test with acetylcholine receptor [1] of 154 RU.

In the test with acetylcholine receptor [1], KRRLLK [6mer-1-47] showed a Binding affinity (RU) of 149 RU. Same read-out and setting: as for RRRFLR [6mer-1-52], the figure is 131 RU. On to KKAANK [6mer-1-666], for which the Binding affinity with acetylcholine receptor [2] was 18 RU. Consider RKWQQK [6mer-1-36], for which the Binding affinity (RU) with acetylcholine receptor [1] came to 124 RU. With RKSFCK [6mer-1-9], the Binding affinity (RU) with acetylcholine receptor [1] was 154 RU. RKSIQK [6mer-1-60] showed a Binding affinity (RU) in the test with acetylcholine receptor [1] of 139 RU.

In the test with acetylcholine receptor [1], RKRRRK [6mer-1-8] registered a Binding affinity (RU) of 125 RU. On the same count and under the same terms, with RRGIQR [6mer-1-56] the figure was 137 RU. Still for that read-out and setting: as for KRQIRK [6mer-1-5], the figure is 135 RU.
